This is an account of results in US20220041715A1.

Assay [1] addresses CoV-2 S (D614G) (SARS-CoV-2) (UniProt P0DTC2). Briefly: ELISA. Background: ELISA stands for enzyme-linked immunosorbent assay.
For assay [2], the target named is CoV-2 RBD (N354D, D364Y) (SARS-CoV-2) (UniProt P0DTC2). Briefly: ELISA.
The target of assay [3] is CoV-2 S (R683A, R685A) (SARS-CoV-2) (UniProt P0DTC2). Description: ELISA.
Assay [4] has as its target CoV-2 RBD (W436R) (SARS-CoV-2) (UniProt P0DTC2). Briefly: ELISA.
The target of assay [5] is CoV-2 RBD (N354D) (SARS-CoV-2) (UniProt P0DTC2). Briefly: ELISA.
The target in assay [6] is CoV-2 RBD (V367F) (SARS-CoV-2) (UniProt P0DTC2). Description: ELISA.
For assay [7], the target named is spike of SARS-CoV-2 variant P.1 (Japanese/Brazilian) on pseudotype virus (SARS-CoV-2) (UniProt P0DTC2). Briefly: cell-based or functional assay.
Assay [8] concerns the target spike of SARS-CoV-2 variant B.1.1.7 (UK) on pseudotype virus (SARS-CoV-2) (UniProt P0DTC2). Briefly: cell-based or functional assay.
Assay [9] deals with spike of SARS-CoV-2 variant B.1.427/B.1.429 (California) on pseudotype virus (SARS-CoV-2) (UniProt P0DTC2). Briefly: cell-based or functional assay.
Assay [10] concerns the target spike of SARS-CoV-2 variant B.1.351 (South Africa) on pseudotype virus (SARS-CoV-2) (UniProt P0DTC2). Briefly: cell-based or functional assay.

As a reminder, the EC50 is the concentration giving half of the maximal effect.

In the case of IVIG (Gamunex; Grifols) (antibody), the EC50 in assay [1] was 1330 µg/mL; in assay [2], 1320 µg/mL; in assay [3] it was 2840 µg/mL; in assay [4], 1240 µg/mL; in assay [5], 1240 µg/mL; in [6], 1130 µg/mL.

On to “rCIG (recombinant coronavirus-2 immune globulin; recombinant anti-coronavirus 19 hyperimmune gammaglobulin) (antibody)”, for which the EC50 in assay [1] was determined as 0.05 µg/mL; in assay [2] it was 0.08 µg/mL; in assay [3], 0.09 µg/mL; in [4], 0.07 µg/mL; in [5] it was 0.07 µg/mL; in assay [6], 0.07 µg/mL. For the same substance, the pseudotype virus neutralization IC50 relative to Wuhan-Hu-1 in [7], in assay [8], in assay [9] and in assay [10] was < 6 fold in each case.
